# Test results: paper PMC3539332
# Target: Arfrp1-His (UniProt Q13795)
# Assay: liposome flotation; liposomes incubated with Arfrp1-His (1.5 μg) and 100 μM GDP or GTPγS, with or without 1 μg MBP-Vangl2 cytosolic domain, in HKM buffer at room temperature for 45 min, then 2 μg purified AP-1 for 1 hr; sucrose flotation; γ1-adaptin in the top fraction by immunoblot, normalised to lipid
# Chain of UniProt Q13795 (Q13795 whole entry, the tested form may be a part): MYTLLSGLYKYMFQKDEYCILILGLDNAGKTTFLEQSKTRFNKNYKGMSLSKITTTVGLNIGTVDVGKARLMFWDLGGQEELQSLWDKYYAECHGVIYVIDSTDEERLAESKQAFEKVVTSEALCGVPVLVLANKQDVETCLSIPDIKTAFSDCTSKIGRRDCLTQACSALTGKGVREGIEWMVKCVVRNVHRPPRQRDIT
substance,measurement,value
purified AP-1 complex (from UniProt Q2KJ81 1-423),fold change of membrane recruitment of AP-1 with both Vangl2 cytosolic domain and Arfrp1-GTPγS,3 fold
